From patent publication US20230241072A1, “ANTHRACYCLINE DERIVATIVES” (ALMAC DISCOVERY LIMITED, priority 2019, published 2023) come the findings set out here.

The test concerns the target ROR1 on the surface of human cancer cells (human) (UniProt Q01973). In words: cell-based or functional assay.

B1: P3A1hFc-PEG4-vc-PAB-EDA-PNU (Fc fusion, not shown: a dimerising Fc or GST)
chain: TRVDQTPRTATKETGESLTINCVLTDTSYGLYSTSWFRKNPGTTDWERMSIGGRYVESVNKGAKSFSLRIKDLTVADSATYYCKAREARHPWLRQWYDGAGTVLTVNGGGGSGGGGSGGGGS
modifications: MA-PEG4-vc-PAB-EDA-PNU159682 on Cys 239 (EU) of the Fc
For the molecule B1, the IC50 (nM) 96 h, cell viability (Cell Titre Glo), 697 cells worked out at 52 nM; the IC50 (nM) 96 h, cell viability (Cell Titre Glo), Kasumi-2 cells worked out at 3.2 nM; the IC50 (nM) 96 h, cell viability (Cell Titre Glo), MHH-ES1 cells is 24 nM; the IC50 (nM) 96 h, cell viability (Cell Titre Glo), PA-1 cells came to 0.1 nM. This molecule also returned an ROR1 targeting/2V non-targeting window, 697 cells of 1.2 fold; an ROR1 targeting/2V non-targeting window, Kasumi-2 cells of 18 fold; an ROR1 targeting/2V non-targeting window, MHH-ES1 cells of 1.1 fold; an ROR1 targeting/2V non-targeting window, PA-1 cells of 73 fold.

B2: P3A1hFc(442)-PEG4-va-EDA-PNU (Fc fusion, not shown: a dimerising Fc or GST)
chain: TRVDQTPRTATKETGESLTINCVLTDTSYGLYSTSWFRKNPGTTDWERMSIGGRYVESVNKGAKSFSLRIKDLTVADSATYYCKAREARHPWLRQWYDGAGTVLTVNGGGGSGGGGSGGGGS
modifications: MA-PEG4-va-EDA-PNU159682 on Cys 442 (EU) of the Fc
Molecule B2 showed an IC50 (nM) 96 h, cell viability (Cell Titre Glo), Kasumi-2 cells of 9.1 nM; an IC50 (nM) 96 h, cell viability (Cell Titre Glo), MHH-ES1 cells of 37.5 nM; an IC50 (nM) 96 h, cell viability (Cell Titre Glo), PA-1 cells of 0.025 nM.

B3: P3A1hFc-PEG4-va-EDA-PNU (Fc fusion, not shown: a dimerising Fc or GST)
chain: TRVDQTPRTATKETGESLTINCVLTDTSYGLYSTSWFRKNPGTTDWERMSIGGRYVESVNKGAKSFSLRIKDLTVADSATYYCKAREARHPWLRQWYDGAGTVLTVNGGGGSGGGGSGGGGS
modifications: MA-PEG4-va-EDA-PNU159682 on Cys 239 (EU) of the Fc
Molecule B3 came in with an IC50 (nM) 96 h, cell viability (Cell Titre Glo), 697 cells of 61 nM; an IC50 (nM) 96 h, cell viability (Cell Titre Glo), Kasumi-2 cells of 2.3 nM; an IC50 (nM) 96 h, cell viability (Cell Titre Glo), MHH-ES1 cells of 18 nM; an IC50 (nM) 96 h, cell viability (Cell Titre Glo), PA-1 cells of 0.15 nM. The ROR1 targeting/2V non-targeting window, 697 cells is 4 fold; the ROR1 targeting/2V non-targeting window, Kasumi-2 cells is 43 fold; the ROR1 targeting/2V non-targeting window, MHH-ES1 cells is 8.4 fold; the ROR1 targeting/2V non-targeting window, PA-1 cells came to 360 fold.
